Target: adeno-associated virus 2 (AAV2) vector capsid (AAV2-nLuc) (adeno-associated virus 2) (UniProt P03135)
Assay: cell-based or functional assay

Chain of UniProt P03135 (P03135 whole entry, the tested form may be a part): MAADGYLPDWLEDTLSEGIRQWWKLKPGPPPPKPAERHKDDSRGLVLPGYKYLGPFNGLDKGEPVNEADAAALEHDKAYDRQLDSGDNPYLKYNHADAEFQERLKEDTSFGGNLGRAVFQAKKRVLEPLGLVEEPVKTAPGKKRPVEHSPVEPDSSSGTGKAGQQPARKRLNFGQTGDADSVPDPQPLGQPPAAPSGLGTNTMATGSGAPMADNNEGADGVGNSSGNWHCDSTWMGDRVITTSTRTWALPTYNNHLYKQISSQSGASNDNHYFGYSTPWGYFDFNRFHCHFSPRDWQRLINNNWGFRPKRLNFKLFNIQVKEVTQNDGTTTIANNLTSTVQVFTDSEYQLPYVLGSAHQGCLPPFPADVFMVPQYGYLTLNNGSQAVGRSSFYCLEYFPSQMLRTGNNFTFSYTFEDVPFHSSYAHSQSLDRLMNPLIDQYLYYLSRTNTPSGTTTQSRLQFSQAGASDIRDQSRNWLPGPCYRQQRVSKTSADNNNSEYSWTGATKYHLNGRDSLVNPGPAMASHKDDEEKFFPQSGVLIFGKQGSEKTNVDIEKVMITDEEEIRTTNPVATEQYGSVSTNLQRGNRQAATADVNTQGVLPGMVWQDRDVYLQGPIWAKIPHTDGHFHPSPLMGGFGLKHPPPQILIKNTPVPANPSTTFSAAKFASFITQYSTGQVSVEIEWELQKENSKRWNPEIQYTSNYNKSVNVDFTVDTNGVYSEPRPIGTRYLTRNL

human intravenous immunoglobulin (IVIG) (antibody)
50% geometric mean neutralizing reciprocal titer (50% GMT) (50% GMT (reciprocal titer)): 1280
neutralization of AAV2-nLuc transduction (reciprocal dilution): 1250
